The chains are these.
B1: RCDB13 (bispecific antibody, human IgG4 S228P, kappa, lambda, F234A L235A)
heavy 1: not shown
light 1: not shown
heavy 2: EVQLVESGGGLVQPGGSLRLSCAASGFTFNTYAMNWVRQAPGKGLEWVARIRSKYNNYATYYAASVKGRFTISRDDSKNSLYLQMNSLKTEDTAVYYCARHGNFGNSYVSWFAYWGQGTLVTVSSASTKGPSVFPLAPCSRSTSESTAALGCLVKDYFPEPVTVSWNSGALTSGVHTFPAVLQSSGLYSLSSVVTVPSSSLGTKTYTCNVDHKPSNTKVDKRVESKYGPPCPPCPAPEAAGGPSVFLFPPKPKDTLMISRTPEVTCVVVDVSQEDPEVQFNWYVDGVEVHNAKTKPREEQFNSTYRVVSVLTVLHQDWLNGKEYKCKVSNKGLPSSIEKTISKAKGQPREPQVYTLPPSQEEMTKNQVSLTCLVKGFYPSDIAVEWESNGQPENNYKTTPPVLDSDGSFLLYSKLTVDKSRWQEGNVFSCSVMHEALHNHYTQKSLSLSLGK
light 2: QTVVTQEPSLTVSPGGTVTLTCRSSTGAVTTSNYANWVQQKPGQAPRGLIGGTNKRAPGTPARFSGSLLGGKAALTLSGVQPEDEAEYYCALWYSNLWVFGGGTKLTVLGQPKAAPSVTLFPPSSEELQANKATLVCLISDFYPGAVTVAWKADSSPVKAGVETTTPSKQSNNKYAASSYLSLTPEQWKSHRSYSCQVTHEGSTVEKTVAPTECS
notes: DuoBody IgG4 PAA, ROR1 arm + CD3B219 arm; also called RR1B78 × CD3B219
B2: RCDB5 (bispecific antibody, human IgG4 S228P, kappa, lambda, F234A L235A)
heavy 1: not shown
light 1: not shown
heavy 2: B1 heavy 2
light 2: B1 light 2
notes: DuoBody IgG4 PAA, ROR1 arm + CD3B219 arm
B3: RCDB3 (bispecific antibody, human IgG4 S228P, kappa, lambda, F234A L235A)
heavy 1: not shown
light 1: not shown
heavy 2: B1 heavy 2
light 2: B1 light 2
notes: DuoBody IgG4 PAA, ROR1 arm + CD3B219 arm; also called RR1B65 × CD3B219
B4: RCDB15 (bispecific antibody, human IgG4 S228P, kappa, lambda, F234A L235A)
heavy 1: not shown
light 1: not shown
heavy 2: B1 heavy 2
light 2: B1 light 2
notes: DuoBody IgG4 PAA, ROR1 arm + CD3B219 arm; also called RR1B83 × CD3B219
B5: RCDB7 (bispecific antibody, human IgG4 S228P, kappa, lambda, F234A L235A)
heavy 1: not shown
light 1: not shown
heavy 2: B1 heavy 2
light 2: B1 light 2
notes: DuoBody IgG4 PAA, ROR1 arm + CD3B219 arm; also called RR1B70 × CD3B219
B6: RCDB9 (bispecific antibody, human IgG4 S228P, kappa, lambda, F234A L235A)
heavy 1: not shown
light 1: not shown
heavy 2: B1 heavy 2
light 2: B1 light 2
notes: DuoBody IgG4 PAA, ROR1 arm + CD3B219 arm; also called RR1B72 × CD3B219
B7: RCDB11 (bispecific antibody, human IgG4 S228P, kappa, lambda, F234A L235A)
heavy 1: not shown
light 1: not shown
heavy 2: B1 heavy 2
light 2: B1 light 2
notes: DuoBody IgG4 PAA, ROR1 arm + CD3B219 arm; also called RR1B76 × CD3B219
B8: RCDB4 (bispecific antibody, human IgG4 S228P, kappa, lambda, F234A L235A)
heavy 1: not shown
light 1: not shown
heavy 2: B1 heavy 2
light 2: B1 light 2
notes: DuoBody IgG4 PAA, ROR1 arm + CD3B219 arm; also called RR1B66 × CD3B219
B9: RCDB17 (bispecific antibody, human IgG4 S228P, kappa, lambda, F234A L235A)
heavy 1: not shown
light 1: not shown
heavy 2: B1 heavy 2
light 2: B1 light 2
notes: DuoBody IgG4 PAA, ROR1 arm + CD3B219 arm; also called RR1B85 × CD3B219
B10: RCDB6 (bispecific antibody, human IgG4 S228P, kappa, lambda, F234A L235A)
heavy 1: not shown
light 1: not shown
heavy 2: B1 heavy 2
light 2: B1 light 2
notes: as for B2
B11: RCDB16 (bispecific antibody, human IgG4 S228P, kappa, lambda, F234A L235A)
heavy 1: not shown
light 1: not shown
heavy 2: B1 heavy 2
light 2: B1 light 2
notes: DuoBody IgG4 PAA, ROR1 arm + CD3B219 arm; also called RR1B84 × CD3B219
B12: RCDB8 (bispecific antibody, human IgG4 S228P, kappa, lambda, F234A L235A)
heavy 1: not shown
light 1: DIQMTQSPSSLSASVGDRVTITCRASQSIDRHLNWYQQKPGKAPKLLIYKASSLQSGVPSRFSGSGSGTDFTLTISSLQPEDFATYYCQQPHTFPLTFGQGTKVEIKRTVAAPSVFIFPPSDEQLKSGTASVVCLLNNFYPREAKVQWKVDNALQSGNSQESVTEQDSKDSTYSLSSTLTLSKADYEKHKVYACEVTHQGLSSPVTKSFNRGEC
heavy 2: B1 heavy 2
light 2: B1 light 2
notes: DuoBody IgG4 PAA, ROR1 arm + CD3B219 arm; also called RR1B71 × CD3B219
B13: RCDB12 (bispecific antibody, human IgG4 S228P, kappa, lambda, F234A L235A)
heavy 1: not shown
light 1: not shown
heavy 2: B1 heavy 2
light 2: B1 light 2
notes: DuoBody IgG4 PAA, ROR1 arm + CD3B219 arm; also called RR1B77 × CD3B219
B14: RCDB19 (bispecific antibody, human IgG4 S228P, kappa, lambda, F234A L235A)
heavy 1: not shown
light 1: not shown
heavy 2: B1 heavy 2
light 2: B1 light 2
notes: DuoBody IgG4 PAA, ROR1 arm + CD3B219 arm; also called RR1B88 × CD3B219
B15: RCDB18 (bispecific antibody, human IgG4 S228P, kappa, lambda, F234A L235A)
heavy 1: not shown
light 1: not shown
heavy 2: B1 heavy 2
light 2: B1 light 2
notes: DuoBody IgG4 PAA, ROR1 arm + CD3B219 arm; also called RR1B86 × CD3B219
B16: RCDB14 (bispecific antibody, human IgG4 S228P, kappa, lambda, F234A L235A)
heavy 1: not shown
light 1: not shown
heavy 2: B1 heavy 2
light 2: B1 light 2
notes: DuoBody IgG4 PAA, ROR1 arm + CD3B219 arm; also called RR1B82 × CD3B219
B17: RR1B78 (antibody, human IgG4 S228P, kappa, F234A L235A, V domains shown)
VH: EVQLVQSGAEVKKPGESLKISCKGSGYSFTSYWIGWVRQMPGKGLEWMGIIYPGDSDTRYSPSFQGQVTISADKSISTAYLQWSSLKASDTAMYYCARDVGRWAPGGFLDYWGQGTLVTVSS
VL: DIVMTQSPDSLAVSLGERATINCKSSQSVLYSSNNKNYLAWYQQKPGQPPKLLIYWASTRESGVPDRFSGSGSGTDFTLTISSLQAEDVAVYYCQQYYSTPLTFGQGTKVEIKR
notes: huIgG4 PAA/kappa

This is an account of results in patent US20170210799A1 (Janssen / Centocor, published 2017).

One may read the EC50 as the concentration at which the effect is half-maximal. A higher EC50 goes with a need for much substance. Usually Kd stands for the free concentration of one partner at which half of the binding sites on the other are occupied at equilibrium, for simple one-to-one binding. Low readings indicate higher affinity, high ones lower affinity.

For one experiment, the target named is T1, human ROR1 (Receptor Tyrosine Kinase-Like Orphan Receptor 1) on cells (human, UniProt Q01973 30-937). The experiment can be described thus: cell-based or functional assay.
Take B1: the “Killing EC50” value is 0.539 nM.
As for B2, the “Killing EC50” value is 0.454 nM.
The same measure, in the same setting: the figure for B3 is 2.48 nM; for B4 it is 1.28 nM.
As for B5, the “Killing EC50” value is 16.9 nM.
With B6, the “Killing EC50” value was determined as 3.21 nM.
For the molecule B7, the “Killing EC50” value was 0.247 nM.
Still for that read-out and setting: the value for B8 was 0.677 nM; that for B9 was 5.17 nM; that for B10 was 0.437 nM.
With B11, the “Killing EC50” value is 2.91 nM.

A further experiment addresses T1, human ROR1 (Receptor Tyrosine …). The experiment can be described thus: flow cytometry, HCC827 cells. On the technique in general: A flow cytometer gives signals particle by particle.
Take B1: the EC50 amounted to 1.64 nM. This lies in the single-digit nanomolar range.
The same measure, in the same setting: the value for B2 was 3.74 nM; that for B3 was 3.77 nM.
Same read-out and setting: the figure for B4 is 6.34 nM; for B12 it is 10.6 nM.
Still for that read-out and setting: the figure for B13 is 1.25 nM; for B5 it is 1 nM.
As for B6, a half-maximal response (EC50) required 16.9 nM.
As to B14, the EC50 stood at 16.2 nM.
Same read-out and setting: the figure for B7 is 2.36 nM.
On the same count and under the same terms, the value for B8 was 9.14 nM.
On the same count and under the same terms, the figure for B9 is 4.72 nM; for B15 it is 5.07 nM; for B10 it is 6.25 nM.
Molecule B11 yielded an EC50 of 10.4 nM.
Same read-out and setting: the value for B16 was 6.21 nM.

For another experiment, the target named is T2, human ROR1 (Receptor Tyrosine Kinase-Like Orphan Receptor 1) on cells (human, UniProt Q01973 30-937).
T2 construct: whole, on cells; endogenous on SKMES-1, MDA-MB231, H358, HCC827 and MCL lines, or on HEK293 cells transfected with human ROR1 (pDR25226); the cell line is named under assay; also called cell-surface ROR1; hu ROR1
The experiment is described as follows: detection of control ROR1+ cell lines spiked into fixed whole blood.
With B17, the binding result is given as “binds”.

A further experiment addresses T1, human ROR1 (Receptor Tyrosine …). The experiment can be described thus: MSD-CAT, HEK293 cells expressing human ROR1.
The molecule B1 showed a dissociation constant (Kd) of 0.254 nM.
On the same count and under the same terms, the figure for B2 is 0.331 nM.
Still for that read-out and setting: the figure for B13 is 0.236 nM.
The same measure, in the same setting: the figure for B6 is 2.27 nM; for B7 it is 0.382 nM; for B10 it is 0.648 nM.
